Results published in publication PMC5686351, “Tudor-domain protein PHF20L1 reads lysine methylated retinoblastoma tumour suppressor protein” (Cell Death and Differentiation, 2017).
Where no end group is shown, it is not given here. The star is where a group is joined. Biotin = O=C1N[C@H]2[C@H](CS[C@H]2CCCCC(=O)*)N1

T1: His-PHF20L1 tudor 1 (UniProt A8MW92 11-71)
T1 construct: PHD-finger protein 20-like 1 (PHF20L1), tudor 1 domain; the GST construct of tudor 1 is 1-74; also called pET28a-PHF20L1 tudor 1; source: E. coli BL21 (DE3), purified
T1 sequence (looked up): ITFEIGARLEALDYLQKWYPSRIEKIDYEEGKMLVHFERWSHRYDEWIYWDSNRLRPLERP

B1: RbK810me1 peptide (biotin-GNIYISPLK[me]SPYKISEG) (peptide)
peptide: Biotin-GNIYISPLK(Me)SPYKISEG
notes: retinoblastoma protein (pRb), stretch around K810, K810 mono-methylated; also called mono-methylated K810 pRb peptide; biotinylated RbK810me1; source: synthetic peptide

How the values were obtained:
[1] = biological target: T1, His-PHF20L1 tudor 1; assay: BLI; peptides immobilised; His-PHF20L1 tudor 1 or full-length His-PHF20L1 in seven 2.5-fold dilutions from 200 μM; 250 s association, 250 s dissociation; conditions: both partners purified
[2] = biological target: B1; assay: as above; conditions: both partners purified

| Kd [1] | Kd [2] | Binder |
| --- | --- | --- |
| 28 µM | – | B1 |
| – | 34 µM | His-PHF20L1 (full length) (natural protein) MSKKPPNRPGITFEIGARLEALDYLQKWYPSRIEKIDYEEGKMLVHFERWSHRYDEWIYWDSNRLRPLERPALRKEGLKDEEDFFDFKAGEEVLARWTDCRYYPAKIEAINKEGTFTVQFYDGVIRCLKRMHIKAMPEDAKGQFLFQVKSQHPLSWCCPIDPAGSCNQSMGSEDWIALVKAAAAAAAKNKTGSKPRTSANSNKDKDKDERKWFKVPSKKEETSTCIATPDVEKKEDLPTSSETFVGLHVENVPKMVFPQPESTLSNKRKNNQGNSFQAKRARLNKITGLLASKAVGVDGAEKKEDYNETAPMLEQV |
